The chains are these.
B1: LINE1-mini (parent)
chain: GGCAGAGCUCAACACAGCGUGGCAAAGUGGCUGUGGCUAGACUGCC

56 variants from the RNAGym collection of RNA variant scans (doi:10.7554/elife.90254) can be followed below.

The variants in the series derive from B1. The series is described as follows: self-cleavage, relative activity (ratio to wild type); higher = more cleavage; in vitro, sequencing; the parent is a self-cleaving ribozyme.
Take GGUAGAGCUCAACACCGCGUGGCAAAGUGGCUGUGGCUAGACUGCC [C3U A16C]: the self-cleavage stood at 0.09.

Take GGUAGAGCUCAACACUGCGUGGCAAAGUGGCUGUGGCUAGACUGCC [C3U A16U]: the self-cleavage worked out at 0.09.

Consider GGUAGAGCUCAACACGGCGUGGCAAAGUGGCUGUGGCUAGACUGCC [C3U A16G], for which the self-cleavage was 0.16.

Take GGUAGAGCUCAACACAGCGUGGCAAAGUGGAUGUGGCUAGACUGCC [C3U C31A]: the self-cleavage came out at 0.07.

With GGUAGAGCUCAAAACAGCGUGGCAAAGUGGCUGUGGCUAGACUGCC [C3U C13A], the self-cleavage came out at 0.15.

As for GGUAGAGCUCAAUACAGCGUGGCAAAGUGGCUGUGGCUAGACUGCC [C3U C13U], the self-cleavage came to 0.23.

For the variant GGUAGAGCUCAAGACAGCGUGGCAAAGUGGCUGUGGCUAGACUGCC [C3U C13G], the self-cleavage turned out to be 0.14.

In the case of GGUAGAGAUCAACACAGCGUGGCAAAGUGGCUGUGGCUAGACUGCC [C3U C8A], the self-cleavage was found to be 0.38.

With GGUAGAGGUCAACACAGCGUGGCAAAGUGGCUGUGGCUAGACUGCC [C3U C8G], the self-cleavage was determined as 0.15.

For the variant GGUAGAGUUCAACACAGCGUGGCAAAGUGGCUGUGGCUAGACUGCC [C3U C8U], the self-cleavage worked out at 0.71.

As for GGUAGAGCUCAACACAGGGUGGCAAAGUGGCUGUGGCUAGACUGCC [C3U C18G], the self-cleavage turned out to be 0.09.

In the case of GGUAGAGCUCAACACAGUGUGGCAAAGUGGCUGUGGCUAGACUGCC [C3U C18U], the self-cleavage came out at 0.42.

In the case of GGUAGAGCUCAACACAGAGUGGCAAAGUGGCUGUGGCUAGACUGCC [C3U C18A], the self-cleavage is 0.23.

On to GGUAGGGCUCAACACAGCGUGGCAAAGUGGCUGUGGCUAGACUGCC [C3U A6G], for which the self-cleavage came to 0.09.

Consider GGUAGUGCUCAACACAGCGUGGCAAAGUGGCUGUGGCUAGACUGCC [C3U A6U], for which the self-cleavage came out at 0.38.

On to GGUAGCGCUCAACACAGCGUGGCAAAGUGGCUGUGGCUAGACUGCC [C3U A6C], for which the self-cleavage was determined as 0.5.

GGUAGAGCUCACCACAGCGUGGCAAAGUGGCUGUGGCUAGACUGCC [C3U A12C]: the self-cleavage amounted to 0.06.

With GGUAGAGCUCAUCACAGCGUGGCAAAGUGGCUGUGGCUAGACUGCC [C3U A12U], the self-cleavage was 0.35.

Take GGUAGAGCUCAGCACAGCGUGGCAAAGUGGCUGUGGCUAGACUGCC [C3U A12G]: the self-cleavage is 0.06.

Turning to GGUAGAGCUCAACACAGCGUGGCAAAGUGGCUGUGGCUAGGCUGCC [C3U A41G], the self-cleavage was 0.12.

For the variant GGUAGAGCUCAACACAGCGUGGCAAAGUGGCUGUGGCUAGCCUGCC [C3U A41C], the self-cleavage amounted to 0.09.

For the variant GGUAGAGCUCAACACAGCGUGGCAAAGUGGCUGUGGCUAGUCUGCC [C3U A41U], the self-cleavage was determined as 0.56.

Regarding GGUAGAGCUAAACACAGCGUGGCAAAGUGGCUGUGGCUAGACUGCC [C3U C10A], the self-cleavage is 0.05.

On to GGUAGAGCUGAACACAGCGUGGCAAAGUGGCUGUGGCUAGACUGCC [C3U C10G], for which the self-cleavage is 0.03.

With GGUAGAGCUUAACACAGCGUGGCAAAGUGGCUGUGGCUAGACUGCC [C3U C10U], the self-cleavage was 0.15.

As to GGUAGAGCUCAACACAGCGUGGCAAAGUGGCUGUGGCUAGACUGCC [C3U], the self-cleavage is 0.48.

Regarding GGGAGAGCUCAACACAGCGUGGCAAAGUGGCUGUGGCUAGACAGCC [C3G U43A], the self-cleavage was found to be 0.41.

In the case of GGGAGAGCUCAACACAGCGUGGCAAAGUGGCUGUGGCUAGACCGCC [C3G U43C], the self-cleavage was 0.14.

Turning to GGGAGAGCUCAACACAGCGUGGCAAAGUGGCUGUGGCUAGACGGCC [C3G U43G], the self-cleavage turned out to be 0.21.

With GGUUGAGCUCAACACAGCGUGGCAAAGUGGCUGUGGCUAGACUGCC [C3U A4U], the self-cleavage is 0.15.

As to GGUCGAGCUCAACACAGCGUGGCAAAGUGGCUGUGGCUAGACUGCC [C3U A4C], the self-cleavage is 0.26.

For the variant GGUGGAGCUCAACACAGCGUGGCAAAGUGGCUGUGGCUAGACUGCC [C3U A4G], the self-cleavage was determined as 0.31.

As to GGUAGAGCUCAACACAGCGUGGCAUAGUGGCUGUGGCUAGACUGCC [C3U A25U], the self-cleavage turned out to be 0.52.

As for GGUAGAGCUCAACACAGCGUGGCAGAGUGGCUGUGGCUAGACUGCC [C3U A25G], the self-cleavage amounted to 0.27.

As to GGUAGAGCUCAACACAGCGUGGCACAGUGGCUGUGGCUAGACUGCC [C3U A25C], the self-cleavage amounted to 0.52.

On to GGUAGAGCUCAACACAGCGUGGCAAAGUGGCUGUGGCUGGACUGCC [C3U A39G], for which the self-cleavage stood at 0.2.

On to GGUAGAGCUCAACACAGCGUGGCAAAGUGGCUGUGGCUUGACUGCC [C3U A39U], for which the self-cleavage was 0.38.

Consider GGUAGAGCUCAACACAGCGUGGCAAAGUGGCUGUGGCUCGACUGCC [C3U A39C], for which the self-cleavage came out at 0.19.

With GGUAGAGCUCAACACAGCGUGGCAAUGUGGCUGUGGCUAGACUGCC [C3U A26U], the self-cleavage came to 0.67.

On to GGUAGAGCUCAACACAGCGUGGCAACGUGGCUGUGGCUAGACUGCC [C3U A26C], for which the self-cleavage was 0.35.

Regarding GGUAGAGCUCAACACAGCGUGGCAAGGUGGCUGUGGCUAGACUGCC [C3U A26G], the self-cleavage is 0.34.

Consider GGUAGAGCUCAACACAGCGUGGCUAAGUGGCUGUGGCUAGACUGCC [C3U A24U], for which the self-cleavage is 0.73.

Consider GGUAGAGCUCAACACAGCGUGGCCAAGUGGCUGUGGCUAGACUGCC [C3U A24C], for which the self-cleavage amounted to 0.37.

On to GGUAGAGCUCAACACAGCGUGGCGAAGUGGCUGUGGCUAGACUGCC [C3U A24G], for which the self-cleavage came out at 0.24.

Regarding GGUAGAGCUCAACAAAGCGUGGCAAAGUGGCUGUGGCUAGACUGCC [C3U C15A], the self-cleavage stood at 0.08.

Regarding GGUAGAGCUCAACAUAGCGUGGCAAAGUGGCUGUGGCUAGACUGCC [C3U C15U], the self-cleavage amounted to 0.32.

GGUAGAGCUCAACAGAGCGUGGCAAAGUGGCUGUGGCUAGACUGCC [C3U C15G]: the self-cleavage stood at 0.08.

GGUAGAGCUCCACACAGCGUGGCAAAGUGGCUGUGGCUAGACUGCC [C3U A11C]: the self-cleavage came to 0.06.

In the case of GGUAGAGCUCUACACAGCGUGGCAAAGUGGCUGUGGCUAGACUGCC [C3U A11U], the self-cleavage was determined as 0.08.

Take GGUAGAGCUCGACACAGCGUGGCAAAGUGGCUGUGGCUAGACUGCC [C3U A11G]: the self-cleavage was determined as 0.03.

Regarding GGUAGAGCUCAACACAGCGUGGAAAAGUGGCUGUGGCUAGACUGCC [C3U C23A], the self-cleavage was found to be 0.55.

In the case of GGUAGAGCUCAACACAGCGUGGUAAAGUGGCUGUGGCUAGACUGCC [C3U C23U], the self-cleavage came to 0.38.

Take GGUAGAGCUCAACACAGCGUGGGAAAGUGGCUGUGGCUAGACUGCC [C3U C23G]: the self-cleavage was 0.46.

As to GGUAGAGCUCAACGCAGCGUGGCAAAGUGGCUGUGGCUAGACUGCC [C3U A14G], the self-cleavage worked out at 0.34.

In the case of GGUAGAGCUCAACCCAGCGUGGCAAAGUGGCUGUGGCUAGACUGCC [C3U A14C], the self-cleavage is 0.08.

Consider GGUAGAGCUCAACUCAGCGUGGCAAAGUGGCUGUGGCUAGACUGCC [C3U A14U], for which the self-cleavage amounted to 0.19.
